From patent publication US20200121803A1 (published 2020)
Positions count from the first letter of the chain named.

B1: CD98 (CL-huAb110)-CZ (antibody, human IgG1, kappa, L234A L235A, V domains shown)
VH: EVQLVQSGAEVKKPGASVKVSCKASGFTFSDYTMAWVRQAPGQGLEWVATIIYDARGTYYRDAVKGRFTITRDNSTSTLYLELSSLRSEDTAVYYCARQSDDTYYYWGYFDYWGQGTMVTVSS
VL: DIVMTQTPLSLPVTPGEPASINCKSSQSLLFSGNQKNYLAWYLQKPGQSPQLLIYWASTRQSGVPDRFSGSGSGTDFTLKISRVEAEDVGIYYCQQYYSSPYTFGQGTKLEIKR
modifications: synthon CZ on reduced interchain cysteines (sites not given)
B2: CD98 (CL-huAb110)-TX (antibody, human IgG1, kappa, L234A L235A, V domains shown)
VH: B1 VH
VL: B1 VL
modifications: synthon TX on reduced interchain cysteines (sites not given)
B3: CD98 (CL-huAb104)-TX (antibody, human IgG1, kappa, L234A L235A, V domains shown)
VH: EVQLVESGGGLVQPGGSLRLSCATSGFTFIDYYMSWVRQAPGKGLEWLGFIRNKAYGYTTEYSASVKGRFTISRDNSKSILYLQMNSLKTEDTAVYYCTRDRPAWFVYWGQGTLVTVSS
VL: B1 VL with N22S, F31Y, G33S, Q61E, I91V, S100Y, Q106G, L110V
modifications: synthon TX on reduced interchain cysteines (sites not given)
B4: CD98 (CL-huAb102)-TV (antibody, human IgG1, kappa, L234A L235A, V domains shown)
VH: B3 VH with Y56N, G57R
VL: B1 VL with N22S, F31Y, G33S, Q61E, I91V, S100Y, Q106G, L110V
modifications: synthon TV on reduced interchain cysteines (sites not given)
B5: CD98 (CL-huAb104)-YY (antibody, human IgG1, kappa, L234A L235A, V domains shown)
VH: B3 VH
VL: B1 VL with N22S, F31Y, G33S, Q61E, I91V, S100Y, Q106G, L110V
modifications: synthon YY on reduced interchain cysteines (sites not given)
B6: CD98 (CL-huAb108)-TX (antibody, human IgG1, kappa, L234A L235A, V domains shown)
VH: B1 VH with D54S, A55G
VL: B1 VL with S99D, S100V
modifications: synthon TX on reduced interchain cysteines (sites not given)
B7: CD98 (CL-huAb108)-YY (antibody, human IgG1, kappa, L234A L235A, V domains shown)
VH: B1 VH with D54S, A55G
VL: B1 VL with S99D, S100V
modifications: synthon YY on reduced interchain cysteines (sites not given)
B8: CD98 (CL-huAb102)-TX (antibody, human IgG1, kappa, L234A L235A, V domains shown)
VH: B3 VH with Y56N, G57R
VL: B1 VL with N22S, F31Y, G33S, Q61E, I91V, S100Y, Q106G, L110V
modifications: synthon TX on reduced interchain cysteines (sites not given)
B9: CD98 (CL-huAb108)-TV (antibody, human IgG1, kappa, L234A L235A, V domains shown)
VH: B1 VH with D54S, A55G
VL: B1 VL with S99D, S100V
modifications: synthon TV on reduced interchain cysteines (sites not given)
B10: CD98 (CL-huAb104)-AAD (antibody, human IgG1, kappa, L234A L235A, V domains shown)
VH: B3 VH
VL: B1 VL with N22S, F31Y, G33S, Q61E, I91V, S100Y, Q106G, L110V
modifications: synthon AAD on reduced interchain cysteines (sites not given)
B11: CD98 (CL-huAb108)-AAA (antibody, human IgG1, kappa, L234A L235A, V domains shown)
VH: B1 VH with D54S, A55G
VL: B1 VL with S99D, S100V
modifications: synthon AAA on reduced interchain cysteines (sites not given)
B12: CD98 (CL-huAb110)-AAA (antibody, human IgG1, kappa, L234A L235A, V domains shown)
VH: B1 VH
VL: B1 VL
modifications: synthon AAA on reduced interchain cysteines (sites not given)
B13: CD98 (CL-huAb104)-LB (antibody, human IgG1, kappa, L234A L235A, V domains shown)
VH: B3 VH
VL: B1 VL with N22S, F31Y, G33S, Q61E, I91V, S100Y, Q106G, L110V
modifications: synthon LB on reduced interchain cysteines (sites not given)
B14: CD98 (CL-huAb110)-TV (antibody, human IgG1, kappa, L234A L235A, V domains shown)
VH: B1 VH
VL: B1 VL
modifications: synthon TV on reduced interchain cysteines (sites not given)
B15: CD98 (CL-huAb110)-AAD (antibody, human IgG1, kappa, L234A L235A, V domains shown)
VH: B1 VH
VL: B1 VL
modifications: synthon AAD on reduced interchain cysteines (sites not given)
B16: CD98 (CL-huAb102)-AAA (antibody, human IgG1, kappa, L234A L235A, V domains shown)
VH: B3 VH with Y56N, G57R
VL: B1 VL with N22S, F31Y, G33S, Q61E, I91V, S100Y, Q106G, L110V
modifications: synthon AAA on reduced interchain cysteines (sites not given)
B17: CD98 (CL-huAb104)-AAA (antibody, human IgG1, kappa, L234A L235A, V domains shown)
VH: B3 VH
VL: B1 VL with N22S, F31Y, G33S, Q61E, I91V, S100Y, Q106G, L110V
modifications: synthon AAA on reduced interchain cysteines (sites not given)
B18: CD98 (CL-huAb102)-YY (antibody, human IgG1, kappa, L234A L235A, V domains shown)
VH: B3 VH with Y56N, G57R
VL: B1 VL with N22S, F31Y, G33S, Q61E, I91V, S100Y, Q106G, L110V
modifications: synthon YY on reduced interchain cysteines (sites not given)
B19: CD98 (CL-huAb102)-LB (antibody, human IgG1, kappa, L234A L235A, V domains shown)
VH: B3 VH with Y56N, G57R
VL: B1 VL with N22S, F31Y, G33S, Q61E, I91V, S100Y, Q106G, L110V
modifications: synthon LB on reduced interchain cysteines (sites not given)
B20: CD98 (CL-huAb102)-AAD (antibody, human IgG1, kappa, L234A L235A, V domains shown)
VH: B3 VH with Y56N, G57R
VL: B1 VL with N22S, F31Y, G33S, Q61E, I91V, S100Y, Q106G, L110V
modifications: synthon AAD on reduced interchain cysteines (sites not given)
B21: CD98 (CL-huAb104)-TV (antibody, human IgG1, kappa, L234A L235A, V domains shown)
VH: B3 VH
VL: B1 VL with N22S, F31Y, G33S, Q61E, I91V, S100Y, Q106G, L110V
modifications: synthon TV on reduced interchain cysteines (sites not given)
B22: CD98 (CL-huAb108)-AAD (antibody, human IgG1, kappa, L234A L235A, V domains shown)
VH: B1 VH with D54S, A55G
VL: B1 VL with S99D, S100V
modifications: synthon AAD on reduced interchain cysteines (sites not given)
B23: CD98 (CL-huAb110)-YY (antibody, human IgG1, kappa, L234A L235A, V domains shown)
VH: B1 VH
VL: B1 VL
modifications: synthon YY on reduced interchain cysteines (sites not given)

Molecular target: T1, human CD98, endogenously expressed on Molt-4 human acute lymphoblastic leukemia cells (human)
T1 chain: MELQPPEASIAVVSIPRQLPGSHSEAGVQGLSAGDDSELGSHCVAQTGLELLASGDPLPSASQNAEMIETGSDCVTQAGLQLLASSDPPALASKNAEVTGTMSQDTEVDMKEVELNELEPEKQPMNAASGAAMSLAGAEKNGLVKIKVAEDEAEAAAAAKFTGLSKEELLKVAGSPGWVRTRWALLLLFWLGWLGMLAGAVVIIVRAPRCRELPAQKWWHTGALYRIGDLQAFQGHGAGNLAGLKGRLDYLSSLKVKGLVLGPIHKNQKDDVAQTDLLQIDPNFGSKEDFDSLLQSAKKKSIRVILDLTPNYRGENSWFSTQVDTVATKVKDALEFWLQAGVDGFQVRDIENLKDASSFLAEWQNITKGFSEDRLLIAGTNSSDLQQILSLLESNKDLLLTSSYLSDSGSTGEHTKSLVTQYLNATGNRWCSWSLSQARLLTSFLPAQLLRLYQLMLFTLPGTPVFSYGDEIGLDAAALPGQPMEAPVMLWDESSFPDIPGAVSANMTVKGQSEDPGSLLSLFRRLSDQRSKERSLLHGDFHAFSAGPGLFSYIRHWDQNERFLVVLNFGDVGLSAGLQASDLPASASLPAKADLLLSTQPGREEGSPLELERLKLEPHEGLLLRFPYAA
Test: cell-based or functional assay

Molt4 IC50 [nM] | Binder | % Cell Viability at 50 nM [%]
0.064 | B1 | 0.8
0.14 | B2 | 2.5
0.06 | B3 | 4.3
0.02 | B4 | 1.5
0.03 | B5 | 2.7
0.15 | B6 | 3
0.14 | B7 | 2.9
0.05 | B8 | 2.8
0.08 | B9 | 1.1
0.028 | B10 | 2.5
0.18 | B11 | 2.9
0.16 | B12 | 1.9
0.062 | B13 | 3.5
0.09 | B14 | 1
0.074 | B15 | 1.5
0.05 | B16 | 2.4
0.04 | B17 | 2.2
0.05 | B18 | 3.1
0.053 | B19 | 14.8
0.024 | B20 | 2.2
0.03 | B21 | 1.4
0.091 | B22 | 1.8
0.13 | B23 | 1.9
